In patent publication US20240391954A1, “MC4R AGONIST PEPTIDES” (The Regents of the University of Michigan, priority 2021, published 2024):
Positions of bridges follow the written chain, without caps; N, C: chain ends. Non-standard residues stand in square brackets, D forms with d. Cit = NC(=O)NCCC[C@H](N)C(=O)O; Nle = CCCC[C@H](N)C(=O)O; Aib = CC(C)(N)C(=O)O

B1: CTX-1628 (peptide)
peptide: Ac-C[dA][Cit][dF]RWC-NH2
modifications: disulfide 1-7
SMILES: CC(=O)N[C@H]1CSSC[C@@H](C(N)=O)NC(=O)[C@H](Cc2c[nH]c3ccccc23)NC(=O)[C@H](CCCNC(=N)N)NC(=O)[C@@H](Cc2ccccc2)NC(=O)[C@H](CCCNC(N)=O)NC(=O)[C@@H](C)NC1=O
B2: CTX-1636 (peptide)
peptide: Ac-C[Aib][Cit][dF]RFC-NH2
modifications: disulfide 1-7
SMILES: CC(=O)N[C@H]1CSSC[C@@H](C(N)=O)NC(=O)[C@H](Cc2ccccc2)NC(=O)[C@H](CCCNC(=N)N)NC(=O)[C@@H](Cc2ccccc2)NC(=O)[C@H](CCCNC(N)=O)NC(=O)C(C)(C)NC1=O
B3: CTX-1633 (peptide)
peptide: Ac-C[Aib][Cit][dF]RWC-NH2
modifications: disulfide 1-7
SMILES: CC(=O)N[C@H]1CSSC[C@@H](C(N)=O)NC(=O)[C@H](Cc2c[nH]c3ccccc23)NC(=O)[C@H](CCCNC(=N)N)NC(=O)[C@@H](Cc2ccccc2)NC(=O)[C@H](CCCNC(N)=O)NC(=O)C(C)(C)NC1=O
B4: CTX-1646 (peptide)
peptide: {CH2CO}-G[Cit][dF]RWC-NH2
modifications: thioether N-6
SMILES: N=C(N)NCCC[C@@H]1NC(=O)[C@@H](Cc2ccccc2)NC(=O)[C@H](CCCNC(N)=O)NC(=O)CNC(=O)CSC[C@@H](C(N)=O)NC(=O)[C@H](Cc2c[nH]c3ccccc23)NC1=O
B5: CTX-1643 (peptide)
peptide: {CH2CO}-[dA][Cit][dF]RWC-NH2
modifications: thioether N-6
SMILES: C[C@H]1NC(=O)CSC[C@@H](C(N)=O)NC(=O)[C@H](Cc2c[nH]c3ccccc23)NC(=O)[C@H](CCCNC(=N)N)NC(=O)[C@@H](Cc2ccccc2)NC(=O)[C@H](CCCNC(N)=O)NC1=O
B6: CTX-1644 (peptide)
peptide: {CH2CO}-GH[dF]RWC-NH2
modifications: thioether N-6
SMILES: N=C(N)NCCC[C@@H]1NC(=O)[C@@H](Cc2ccccc2)NC(=O)[C@H](Cc2c[nH]cn2)NC(=O)CNC(=O)CSC[C@@H](C(N)=O)NC(=O)[C@H](Cc2c[nH]c3ccccc23)NC1=O
B7: CTX-1629 (peptide)
peptide: Ac-CGR[dF]RWC-NH2
modifications: disulfide 1-7
SMILES: CC(=O)N[C@H]1CSSC[C@@H](C(N)=O)NC(=O)[C@H](Cc2c[nH]c3ccccc23)NC(=O)[C@H](CCCNC(=N)N)NC(=O)[C@@H](Cc2ccccc2)NC(=O)[C@H](CCCNC(=N)N)NC(=O)CNC1=O
B8: CTX-1626 (peptide)
peptide: Ac-R[Nle]C[Cit][dF]RFC-NH2
modifications: disulfide 3-8
SMILES: CCCC[C@H](NC(=O)[C@H](CCCNC(=N)N)NC(C)=O)C(=O)N[C@H]1CSSC[C@@H](C(N)=O)NC(=O)[C@H](Cc2ccccc2)NC(=O)[C@H](CCCNC(=N)N)NC(=O)[C@@H](Cc2ccccc2)NC(=O)[C@H](CCCNC(N)=O)NC1=O
B9: CTX-1642 (peptide)
peptide: {CH2CO}-[dA]R[dF]RWC-NH2
modifications: thioether N-6
SMILES: C[C@H]1NC(=O)CSC[C@@H](C(N)=O)NC(=O)[C@H](Cc2c[nH]c3ccccc23)NC(=O)[C@H](CCCNC(=N)N)NC(=O)[C@@H](Cc2ccccc2)NC(=O)[C@H](CCCNC(=N)N)NC1=O
B10: CTX-1647 (peptide)
peptide: {CH2CO}-[Aib]H[dF]RWC-NH2
modifications: thioether N-6
SMILES: CC1(C)NC(=O)CSC[C@@H](C(N)=O)NC(=O)[C@H](Cc2c[nH]c3ccccc23)NC(=O)[C@H](CCCNC(=N)N)NC(=O)[C@@H](Cc2ccccc2)NC(=O)[C@H](Cc2c[nH]cn2)NC1=O
B11: CTX-1634 (peptide)
peptide: Ac-C[Aib]H[dF]RFC-NH2
modifications: disulfide 1-7
SMILES: CC(=O)N[C@H]1CSSC[C@@H](C(N)=O)NC(=O)[C@H](Cc2ccccc2)NC(=O)[C@H](CCCNC(=N)N)NC(=O)[C@@H](Cc2ccccc2)NC(=O)[C@H](Cc2c[nH]cn2)NC(=O)C(C)(C)NC1=O
B12: CTX-1632 (peptide)
peptide: Ac-C[Aib]R[dF]RWC-NH2
modifications: disulfide 1-7
SMILES: CC(=O)N[C@H]1CSSC[C@@H](C(N)=O)NC(=O)[C@H](Cc2c[nH]c3ccccc23)NC(=O)[C@H](CCCNC(=N)N)NC(=O)[C@@H](Cc2ccccc2)NC(=O)[C@H](CCCNC(=N)N)NC(=O)C(C)(C)NC1=O
B13: CTX-1627 (peptide)
peptide: Ac-C[dA]R[dF]RWC-NH2
modifications: disulfide 1-7
SMILES: CC(=O)N[C@H]1CSSC[C@@H](C(N)=O)NC(=O)[C@H](Cc2c[nH]c3ccccc23)NC(=O)[C@H](CCCNC(=N)N)NC(=O)[C@@H](Cc2ccccc2)NC(=O)[C@H](CCCNC(=N)N)NC(=O)[C@@H](C)NC1=O
B14: CTX-1630 (peptide)
peptide: Ac-CG[Cit][dF]RWC-NH2
modifications: disulfide 1-7
SMILES: CC(=O)N[C@H]1CSSC[C@@H](C(N)=O)NC(=O)[C@H](Cc2c[nH]c3ccccc23)NC(=O)[C@H](CCCNC(=N)N)NC(=O)[C@@H](Cc2ccccc2)NC(=O)[C@H](CCCNC(N)=O)NC(=O)CNC1=O
B15: CTX-1638 (peptide)
peptide: Ac-CGR[dF]RFC-NH2
modifications: disulfide 1-7
SMILES: CC(=O)N[C@H]1CSSC[C@@H](C(N)=O)NC(=O)[C@H](Cc2ccccc2)NC(=O)[C@H](CCCNC(=N)N)NC(=O)[C@@H](Cc2ccccc2)NC(=O)[C@H](CCCNC(=N)N)NC(=O)CNC1=O
B16: CTX-1639 (peptide)
peptide: Ac-CG[Cit][dF]RFC-NH2
modifications: disulfide 1-7
SMILES: CC(=O)N[C@H]1CSSC[C@@H](C(N)=O)NC(=O)[C@H](Cc2ccccc2)NC(=O)[C@H](CCCNC(=N)N)NC(=O)[C@@H](Cc2ccccc2)NC(=O)[C@H](CCCNC(N)=O)NC(=O)CNC1=O
B17: CTX-1645 (peptide)
peptide: {CH2CO}-GR[dF]RWC-NH2
modifications: thioether N-6
SMILES: N=C(N)NCCC[C@@H]1NC(=O)CNC(=O)CSC[C@@H](C(N)=O)NC(=O)[C@H](Cc2c[nH]c3ccccc23)NC(=O)[C@H](CCCNC(=N)N)NC(=O)[C@@H](Cc2ccccc2)NC1=O
B18: CTX-1635 (peptide)
peptide: Ac-C[Aib]R[dF]RFC-NH2
modifications: disulfide 1-7
SMILES: CC(=O)N[C@H]1CSSC[C@@H](C(N)=O)NC(=O)[C@H](Cc2ccccc2)NC(=O)[C@H](CCCNC(=N)N)NC(=O)[C@@H](Cc2ccccc2)NC(=O)[C@H](CCCNC(=N)N)NC(=O)C(C)(C)NC1=O

Biological target: T1, human MC4R receptor (human, UniProt P32245 1-332)
T1 sequence (P32245 whole entry): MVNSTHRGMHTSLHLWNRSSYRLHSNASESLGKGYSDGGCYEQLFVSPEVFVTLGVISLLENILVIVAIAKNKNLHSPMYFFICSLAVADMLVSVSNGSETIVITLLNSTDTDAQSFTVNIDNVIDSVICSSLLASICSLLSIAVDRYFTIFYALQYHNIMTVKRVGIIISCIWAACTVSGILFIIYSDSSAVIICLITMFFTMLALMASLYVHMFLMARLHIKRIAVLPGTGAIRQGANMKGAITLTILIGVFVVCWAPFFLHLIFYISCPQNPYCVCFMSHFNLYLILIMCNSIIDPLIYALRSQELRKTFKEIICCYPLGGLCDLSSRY
Assay: cell-based or functional assay

Row | MC4R selectivity vs MC1R | MC4R selectivity vs MC3R | Binder
1 | 191 | 6.37 | B1
2 | > 12 | 9.44 | B2
3 | 942 | 104 | B3
4 | > 770 | 193 | B4
5 | 261 | 133 | B5
6 | 4.84 | 53 | B6
7 | 15 | 19 | B7
8 | 3.05 | 1.6 | B8
9 | 13 | 29 | B9
10 | 3.66 | 30 | B10
11 | 4.02 | 6.68 | B11
12 | 3.18 | 36 | B12
13 | 9.33 | 2.47 | B13
14 | 1820 | 28 | B14
15 | 1.04 | 1.66 | B15
16 | 8.32 | 2.82 | B16
17 | 9.04 | 42 | B17
18 | 1.19 | 5.7 | B18

Biological target: human MC3R (human, UniProt P41968 1-323)
Sequence (P41968 whole entry): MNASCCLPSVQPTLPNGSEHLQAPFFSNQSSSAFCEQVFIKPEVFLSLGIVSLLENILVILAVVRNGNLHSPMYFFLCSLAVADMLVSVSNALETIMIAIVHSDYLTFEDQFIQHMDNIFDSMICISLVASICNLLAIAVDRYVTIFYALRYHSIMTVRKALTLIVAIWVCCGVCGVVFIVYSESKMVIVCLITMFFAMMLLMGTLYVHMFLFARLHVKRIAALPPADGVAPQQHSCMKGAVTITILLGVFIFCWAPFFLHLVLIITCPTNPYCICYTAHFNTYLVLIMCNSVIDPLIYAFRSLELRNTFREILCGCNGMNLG
Assay: cell-based or functional assay

Row | % max activation [%] | cAMP EC50 [nM] | Binder
19 | 45 | 92 | B1
20 | 44 | 7460 | B2
21 | 45 | 290 | B3
22 | 70 | 2420 | B4
23 | 81 | 2550 | B5
24 | 107 | 120 | B6
25 | 83 | 13 | B7
26 | 51 | 678 | B8
27 | 90 | 83 | B9
28 | 102 | 21 | B10
29 | 94 | 56 | B11
30 | 77 | 19 | B12
31 | 98 | 3.7 | B13
32 | 35 | 614 | B14
33 | 75 | 408 | B15
34 | 44 | 7690 | B16
35 | 97 | 68 | B17
36 | 70 | 380 | B18

Biological target: T1, human MC4R receptor
Assay: cell-based or functional assay
Remark: another data set of the same source

Row | % max activation [%] | cAMP EC50 [nM] | Binder
37 | 99 | 14 | B1
38 | 102 | 791 | B2
39 | 110 | 2.8 | B3
40 | 103 | 13 | B4
41 | 111 | 19 | B5
42 | 111 | 2.3 | B6
43 | 102 | 0.67 | B7
44 | 83 | 425 | B8
45 | 107 | 2.9 | B9
46 | 109 | 0.68 | B10
47 | 107 | 8.5 | B11
48 | 105 | 0.51 | B12
49 | 104 | 1.4 | B13
50 | 102 | 22 | B14
51 | 110 | 351 | B15
52 | 88 | 2730 | B16
53 | 110 | 1.6 | B17
54 | 112 | 67 | B18
